# Data as given in paper PMC4191604 (Journal of Medicinal Chemistry, 2014).
# Positions count from the first letter of the chain named.
# T1: GBP1 mutant R48A (human, UniProt P32455 1-592, R48A)
# T1 sequence (looked up): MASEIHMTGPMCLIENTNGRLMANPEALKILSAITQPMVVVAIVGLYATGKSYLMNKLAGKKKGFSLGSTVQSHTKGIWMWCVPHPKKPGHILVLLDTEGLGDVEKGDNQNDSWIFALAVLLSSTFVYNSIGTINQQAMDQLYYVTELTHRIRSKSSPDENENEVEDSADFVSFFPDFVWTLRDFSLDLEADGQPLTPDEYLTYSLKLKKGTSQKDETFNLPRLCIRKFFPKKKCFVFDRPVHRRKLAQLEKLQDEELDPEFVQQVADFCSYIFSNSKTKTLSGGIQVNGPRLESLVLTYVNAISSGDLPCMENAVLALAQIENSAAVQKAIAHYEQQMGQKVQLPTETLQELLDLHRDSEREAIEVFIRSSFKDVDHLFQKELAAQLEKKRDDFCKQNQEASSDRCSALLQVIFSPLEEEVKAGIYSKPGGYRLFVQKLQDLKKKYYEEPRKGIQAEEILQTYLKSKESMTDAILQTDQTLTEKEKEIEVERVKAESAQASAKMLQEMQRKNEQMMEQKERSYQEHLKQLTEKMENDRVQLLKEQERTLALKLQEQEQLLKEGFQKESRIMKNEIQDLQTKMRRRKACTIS
# T2: GBP1 mutant R227A/K228A (human, UniProt P32455 1-592, R227A | K228A)
# T2 sequence (looked up): T1 sequence (looked up) with A48R, R227A, K228A
# T3: GBP1 mutant D184A (human, UniProt P32455 1-592, D184A)
# T3 sequence (looked up): T1 sequence (looked up) with A48R, D184A
# T4: GBP1 mutant D103N (human, UniProt P32455 1-592, D103N)
# T4 sequence (looked up): T1 sequence (looked up) with A48R, D103N
# B1: PIM1 (recombinant) (enzyme)
# chain: not shown
# Legend:
# Assay in all cases: SPR
# GBP1 mutant R48A = target: T1, GBP1 mutant R48A
# GBP1 mutant R227A/K228A = target: T2, GBP1 mutant R227A/K228A
# GBP1 mutant D184A = target: T3, GBP1 mutant D184A
# GBP1 mutant D103N = target: T4, GBP1 mutant D103N
binder,measurement,setting,value
B1,Kd,GBP1 mutant R48A,21 ± 0.1 nM
same,Kd,GBP1 mutant R227A/K228A,61 ± 4 nM
same,Kd,GBP1 mutant D184A,77 ± 3 nM
same,Kd,GBP1 mutant D103N,15 ± 0.1 nM
